Like-named read-outs stand apart in the source and are kept apart here.
What was measured:
[1] = target: rat homomeric ASIC1b channel (rat) (UniProt P55926)
[2] = target: rat homomeric ASIC1b channel (rat) (UniProt P55926); remark: listed apart in the source
[3] = target: rat homomeric ASIC1a channel (rat, UniProt P55926); assay: cell-based or functional assay
[4] = target: human homomeric ASIC1a channel (human, UniProt P78348); assay: cell-based or functional assay
[5] = target: rat heteromeric ASIC1a+ASIC1b channel (rat, UniProt P55926); assay: cell-based or functional assay
[6] = target: human heteromeric ASIC1a+ASIC2a channel (human, UniProt P78348); assay: cell-based or functional assay
[7] = target: rat heteromeric ASIC1a+ASIC2a channel (rat, UniProt P55926); assay: cell-based or functional assay

Question: With ASICalgin-1 (π-Dp1) (peptide) as the molecule, how does the inhibition of the acid-evoked ASIC current, patch clamp whole cell, COS cells [1] read?
Answer: 650 nM

B1: ASICalgin-2 (π-Dp2) (peptide)
peptide: LKCFQHGKVVTCHRDMKFCYHNTGMPFRNLKLILQGCSSSCSETENNKCCSTDRCNK
Question: What does the source list for B1?
Answer: inhibition of the acid-evoked ASIC current, patch clamp whole cell, COS cells [2]: 650 nM; inhibition of the acid-evoked ASIC current, patch clamp whole cell, COS cells [3]: 49 nM; inhibition of the acid-evoked ASIC current, patch clamp whole cell, COS cells [4]: 127 nM; inhibition of the acid-evoked ASIC current, patch clamp whole cell, COS cells [5]: 223 nM; inhibition of the acid-evoked ASIC current, patch clamp whole cell, COS cells [6]: 308 nM; inhibition of the acid-evoked ASIC current, patch clamp whole cell, COS cells [7]: 308 nM

B2: ASICalgin-1 (π-Dp1) (peptide)
peptide: LKCYQHGKVVTCHRDMKFCYHNTGMPFRNLKLILQGCSSSCSETENNKCCSTDRCNK
Question: How did the “inhibition of the acid-evoked ASIC current, patch clamp whole cell, COS cells” value (“inhibition” below) [3] turn out when B2 was run?
Answer: 49 nM

Question: And the “inhibition” value [4]?
Answer: 127 nM

Question: What about the “inhibition” value [5] of the same molecule?
Answer: 223 nM

Question: And the “inhibition” value [6]?
Answer: 308 nM

Question: What about the “inhibition” value [7] of the same molecule?
Answer: 308 nM

Source: patent US20130196923A1, “NOVEL PEPTIDES WHICH HAVE ANALGESIC EFFECTS AND WHICH INHIBIT ASIC CHANNELS” (CENTRE NATIONAL DE LA RESERCHE SCIENTIFIQUE-CNRS, published 2013)
